{"source": "patent US20240409617A1", "binders": {"B1": {"name": "Ab_14 scFv-Fc (scFv, V domains shown)", "VH": "QVQLQQSGPGLVKPSQTLSLTCAISGDSVSSNSAAWNWIRQSPARGLEWLGRTYYRSRWYNDYAISMKSRITINPDTSKNQFSLQLESVTPEDTAVYYCAREIRGFDYWGQGTLVTVSS", "VL": "QSVLTQPPSASGSPGQSVTISCTGTSSDVGAYNFVSWYQHHPGKAPKLIIYDFNKRPSGVPDRFSGSKSGNTASLTVSGLQADDEADYYCSSYAGSNNFDVVFGGGTKLTVL"}, "B2": {"name": "Ab_23 scFv-Fc (scFv, V domains shown)", "VH": "EVQLVQSGAEVKKPGSSVKVSCRSSGGTFSTYGITWVRQAPGQGLEWMGRIIPSLGIPNYAQKFQGRVTITADTSVSTAWMELSSLESDDTAIYYCARENIDLATNDFWGQGTLVTVSS", "VL": "QSALTQPPSASGSPGQSVTISCTGTSRDIGAYGYVSWYQQVPGKAPKLIIYEVRNRPSGVSSRFSGSKSGNTASLTISGLQAEDEADYYCSSYTSSSTLDVVFGGGTKLTVL"}, "B3": {"name": "Ab_21 scFv-Fc (scFv, V domains shown)", "VH": "QVQLVQSGGGLVQPGGSLRLSCATSGFTFDDYAMHWVRQAPGKGLEWVSGISWNSGSIGYVDSVKGRFTISRDNRNNKVYLQMNNLRAEDTAVYYCARDWWGSIDHWGLGTLVTVSS", "VL": "QSALTQPRSVSGSPGQSVTISCTGTSSDVGGYDYVSWYQQHPGKAPKLIIYDVSKRPSGVPDRFSGSKSGNTASLTVSGLQAEDEADYYCSSYTSSSPVVFGGGTKLTVL"}, "B4": {"name": "Ab_27 scFv-Fc (scFv, V domains shown)", "VH": "QVQLVQSGTEVKKPGASVKVSCKASGYSFTGSHLHWVRQAPGQGLEWMGWINPDSGVINYAQKFQGRVTLTRDTSISTAYMELSGLRSDDTAVYYCARDKAIGYVWALDYWGQGTLVTVSS", "VL": "QSALTQPPSVSGSPGQSVTISCTGTSSDVGTYNRVSWYQQPPGKAPKLMIYEVSNRPSGVSNRFSGSKSGNTASLTISGLQAEDEADYYCSSYTRTFTYVFGTGTKVTVL"}, "B5": {"name": "Ab_17 scFv-Fc (scFv, V domains shown)", "VH": "QVQLVQSGGGVVQPGRSLRLSCAASGFTFDDYAMHWVRQVPGKGLEWVSGIDWNSGVIGYADSVKGRFTISRDNVKNSLYLQMNSLRTEDSALYYCAKDIGPGGSGSYYAFDIWGQGTTVTVSS", "VL": "QSALTQPASVSGSPGQSITISCTGTSSDVGGSKYVSWYQQHPGKAPKVMIYDVTKRPSGVPDRFSGSKSGNTASLTISGLQAEDEADYYCAAWDDSLNGVVFGGGTKLTVL"}, "B6": {"name": "RBD-R3-E1-A5 Ab (Ab_30) scFv-Fc (scFv, V domains shown)", "VH": "QVQLVQSGGGVVQPGKSLRLSCTASGFTFSDFPIHWVRQAPGKGLEWVGVISYDGNIKYYGDSVKGRFTISRDNAKNSLYLQMNSLRVEDTAVYYCARGGSSFDIWGQGTTVTVSS", "VL": "SYELTQPPSVSEAPRQRVTISCSGSTSNIGNNAVSWYQHLPGKAPKLLIYYNERLPSGVSDRFSGSKSGTSASLAISGLRSEDEADYYCAAWDDSLSGHVVFGGGTKLTVL"}, "B7": {"name": "S1-RBD-R3-T1-B12 Ab (Ab_31) scFv-Fc (scFv, V domains shown)", "VH": "QVQLVQSGAEVKKPGSSVKVSCKASGGTFSSYTISWVRQAPGQGLEWMGGIIPILGTPNYAQKFQDRVAITADKSTSTAYMELSSLRSEDTAVYYCAVGSGWYSGFDYWGQGTLVTVSS", "VL": "NFMLTQPHSVSESPGKTVTISCTGSSGSIASNYVQWYQQRPGSAPTTVIYEDSQRPSGVPDRFSGSIDSSSNSASLTISGLKTEDEADYYCQSFHNSNPVIFGGGTKLTVL"}, "B8": {"name": "Ab_16 scFv-Fc (scFv, V domains shown)", "VH": "QVQLVQSGGGVVQPGRSLRLSCAASGFTFSNYGMHWVRQAPGKGLEWVALIWERGSKKDYADSVKGRFTVSRDNSKNTLYLQMNSLRPEDTAVYFCAREGISMTGAEYFQHWGQGTLVTVSS", "VL": "QSVLTQPPSVSGSPGQRVTMSCTGSSSNIGAGYDVHWYQQVPGAAPRLLIYGTNNRPSGVPDRFSGSKSGTSASLTITGLQAEDEADYYCQSYDNSLTDPYVFGTGTKVTVL"}, "B9": {"name": "Ab_26 scFv-Fc (scFv, V domains shown)", "VH": "QVQLVQSGGGLVQPGRSLRLSCAASGFTFDDYAMHWVRQVPGKGLEWVSGIDWNSGVIGYADSVKGRFTISRDNAKNSLYLQMNSLRAEDTALYYCAKDAYSYGFLGAFDIWGQGTMVTVSS", "VL": "LPVLTQPPSVSVAPGQTASITCGGDNIRTKGVHWYQQKPGQAPLLVIYYASDRPSGIPERFSGSSSGNTATLTISRVEAGDEADYYCQVWDSSSDLVVFGGGTTLTVL"}, "B10": {"name": "Ab_13 scFv-Fc (scFv, V domains shown)", "VH": "QVTLKESGPKLVKPTQTLTLTCTFSGFSLSTSGVGVGWIRQPPGKALEWLALIYWDDDKRYSPSLKSRLTIAKDTSKYQVVLTMTNMDPVDTATYYCARISGSGYFYPFDIWGQGTMVTVSA", "VL": "NFMLTQPHSVSESPGKTVTISCTRSSGSIASNYVQWYQQRPGSAPTTVIYEDNQRPSGVPDRFSGSIDSSSNSASLTISGLKTEDEADYYCQSYDSSNLWVFGGGTKLTVL"}, "B11": {"name": "S1-RBD-R3-T1-F5 (Ab2-7) scFv-Fc (scFv, V domains shown)", "VH": "QVTLKESGPTRVKPTQTLTLTCTFSGFSLSTTGVGVGWIRQPPGKALEWLALIYWNDDKRYSPSLKSRLTITKDTSKNQVVLTMTNMDPVDTATYYCARISGSGYFYPFDIWGQGTTVTVSS", "VL": "NFMLTQPHSVSESPGKTVTISCTRSSGSIASNYVQWYQQRPGSSPTTVIYEDNQRPSGVPDRFSGSIDSSSNSASLTISGLKAEDEADYYCQSYDSSSLWVFGGGTKLTVL"}, "B12": {"name": "Ab_20 scFv-Fc (scFv, V domains shown)", "VH": "QVQLVQSGGGSVKPGGSLRLSCAASGYRLSDYYMHWVRQAPGKGLEWVANIKQDGSEKYYVDSVKGRFTISRDNAKNSLYLQMNSLRAEDTAVYYCARVRGWSRGYFDYWGQGTLVTVSS", "VL": "NFMLTQPHSVSESPGKTVTISCTGSSGSIASNYVQWYQQRPGSAPTTVIYEDNQRPSGVPDRFSGSIDSSSNSASLLISGLKTEDEADYYCQSYDSSNHWVFGGGTKLTVL"}, "B13": {"name": "Ab_25 scFv-Fc (scFv, V domains shown)", "VH": "QVQLVQSGGGLVQPGGSLRLSCAASGFTFSSYWMSWVRQAPGKGLEWVANIKQDGSEKYYVDSVKGRFTISRDNAKNSLYLQMNSLRAEDTAVYYCARGFYYYGAFDIWGQGTTVTVSS", "VL": "NFMLTQPHSVSESPGKTVTISCTGSSGSIASNYVQWYQQRPGSAPTTVIYEDNQRPSGVPDRFSGSIGSSSNSASLTISGLKTEDEADYYCQSYDSSNHWVFGGGTKLTVL"}, "B14": {"name": "Ab_28 scFv-Fc (scFv, V domains shown)", "VH": "QVTLKESGPGLVNPSETLSLTCTVSGASISNSFWSWIRQSPGKGLEWIGYTSYSGNSIYNPSLKSRLTMSIDTSKNQLSLNLRSLTAADTAVYYCARREWIKGHFDYWGQGTLVTVSS", "VL": "NFMLTQPHSVSESPGKTVTISCTGSGGSIASNYVQWYQQRPGSAPTTVIYEDNQRPSGVPDRFSGSIDSSSNSASLTISGLKTEDEADYYCQSYDSSNPVVFGGGTKLTVL"}, "B15": {"name": "S1-RBD-R3-T1-C7 Ab (Ab_29) scFv-Fc (scFv, V domains shown)", "VH": "QVQLQQSGPGLVKPSQTLSLTCAISGDSVSSYSDAWNWIRQSPSRGLEWLGRTYYRSKWYNDYAVSVKSRITINPDTSKNQFSLQLSSVTPEDTAVYYCAREIVATTPFRNYYYGMDVWGQGTTVTVSS", "VL": "NFMLTQPHSVSESPGNTVTISCTRTSGSIASNYVQWYQQRPGSSPTTVIFQDKLRPSGVPDRFSGSIDSSSNSASLTISGLKTEDEADYYCQSYDSSSLWVFGGGTKLTVL"}, "B16": {"name": "Ab_18 scFv-Fc (scFv, V domains shown)", "VH": "EVQLVQSGGGVVQPGRSLRVSCAASGFSFSRYGMHWVRQAPGKGLEWVAFIRHDGSKKYYADSVEGRFTISRDNSRNTVSLEMNSLRGEDTAVYYCAKDGRLEAALDDWGQGTLVTVSS", "VL": "NFMLTQPHSMSGSAGKTVTVSCIRSSGSIANNFVQWYQQRPGSAPTTVIYEDNQRPSGVPDRFSGSIDSSSNSASLTISGLKTEDEADYYCQSYDSSNLVFGGGTRLTVL"}, "B17": {"name": "Ab_19 scFv-Fc (scFv, V domains shown)", "VH": "EVQLVESGAEVKKPGESLKISCKGSGYSFTSYWIGWVRQMPGKGLEWMGIIYPGDSDTRYSPSFQGQVTISADKSISTAYLQWSSLKASDTAMYYCARRGDLDAFDIWGQGTMVTVSS", "VL": "QPGLTQPPAASGTPGQRVTVSCSGASANIGSNAVSWFKQFPETAPRLLISGNTHRPSGVPDRVSGSKSGTSASLTISGLQSDDEADYYCAAWDDSLNGYVFGSGTKVTVL"}, "B18": {"name": "S1-R3-T1-C4 (Ab_8) scFv-Fc (scFv, V domains shown)", "VH": "QVQLVQSGAEVKKPGSSVKVSCKASGGTFSSYAISWLRQAPGQGLEWMGWINPNSGGTNYAQKFQGRVTMTRDTSISTAYMELSRLRSDDTAVYYCARGSGGYYLGWGQGTLVTVSS", "VL": "QPGLTQPPSVSKGLRQTATLTCTGNSNNVGNQGAAWLQQHQGHPPKLLSYMNNNRPPGISERFSASRSGNTASLTITGLQPEDEADYYCSAWDSSLSRWVFGGGTKLSVL"}, "B19": {"name": "RBD-R3-E1-B3 Ab (Ab_32) scFv-Fc (scFv, V domains shown)", "VH": "QVQLVQSGAEVKKPGESLKISCKGSGYSFTSYWIGWVRQMPGKGLEWMGIIYPGDSDTRYSPSFQGQVTISADKSISTAYLQWSSLKASDTAMYYCARGWQWHDYWGQGTLVTVSS", "VL": "QTVVTQEPAVSVALGQTVRITCQGDSLRSYYASWYQQKPGQAPVLVVYDKDKRPSGIPDRFSGSTSGNTASLTITGAQAEDEADYYCNSRDRSDNHVVFGGGTKLTVL"}, "B20": {"name": "Ab2-7 IgG (antibody, V domains shown)", "VH": "QVTLKESGPTRVKPTQTLTLTCTFSGFSLSTTGVGVGWIRQPPGKALEWLALIYWNDDKRYSPSLKSRLTITKDTSKNQVVLTMTNMDPVDTATYYCARISGSGYFYPFDIWGQGTTVTVSS", "VL": "NFMLTQPHSVSESPGKTVTISCTRSSGSIASNYVQWYQQRPGSSPTTVIYEDNQRPSGVPDRFSGSIDSSSNSASLTISGLKAEDEADYYCQSYDSSSLWVFGGGTKLTVL"}}}
{"target": "D614G Spike (SARS-CoV2)", "units": {"Kd": "pM"}}
{"binder": "B1", "Kd": 8.12, "Response": 0.402}
{"binder": "B2", "Kd": 8.82, "Response": 0.162}
{"binder": "B3", "Kd": 8, "Response": 0.228}
{"binder": "B4", "Kd": 7.53, "Response": 0.276}
{"binder": "B5", "Kd": 6.8, "Response": 0.357}
{"binder": "B6", "Kd": 7.43, "Response": 0.179}
{"binder": "B7", "Kd": 9.03, "Response": 0.168}
{"binder": "B8", "Kd": 8.35, "Response": 0.434}
{"binder": "B9", "Kd": 9.97, "Response": 0.304}
{"binder": "B10", "Kd": 8.1, "Response": 0.107}
{"binder": "B11", "Kd": 9.93, "Response": 0.116}
{"binder": "B12", "Kd": 8.64, "Response": 0.19}
{"binder": "B13", "Kd": 8.56, "Response": 0.0425}
{"binder": "B14", "Kd": 9.41, "Response": 0.199}
{"binder": "B15", "Kd": 1.04, "Response": 0.202}
{"binder": "B16", "Kd": 6.33, "Response": 0.291}
{"binder": "B17", "Kd": 10.9, "Response": 0.237}
{"binder": "B18", "Kd": 7.3, "Response": 0.187}
{"binder": "B19", "Kd": 7.26, "Response": 0.204}
{"target": "SARS-CoV-2 spike trimer, soluble (SARS-CoV-2)", "units": {"Kd": "pM", "koff": "s⁻¹", "kon": "M⁻¹ s⁻¹"}}
{"binder": "B20", "Kd": "< 1", "koff": "< 1e-07", "kon": "4.31e+07"}
